In the test the target is CD44-AFAP-110 complex (human (endogenous in MDA-MB-231)) (UniProt P16070). The test is described as follows: radioligand binding.
UniProt P16070, sequence (P16070 21-742, chain 1 of 2): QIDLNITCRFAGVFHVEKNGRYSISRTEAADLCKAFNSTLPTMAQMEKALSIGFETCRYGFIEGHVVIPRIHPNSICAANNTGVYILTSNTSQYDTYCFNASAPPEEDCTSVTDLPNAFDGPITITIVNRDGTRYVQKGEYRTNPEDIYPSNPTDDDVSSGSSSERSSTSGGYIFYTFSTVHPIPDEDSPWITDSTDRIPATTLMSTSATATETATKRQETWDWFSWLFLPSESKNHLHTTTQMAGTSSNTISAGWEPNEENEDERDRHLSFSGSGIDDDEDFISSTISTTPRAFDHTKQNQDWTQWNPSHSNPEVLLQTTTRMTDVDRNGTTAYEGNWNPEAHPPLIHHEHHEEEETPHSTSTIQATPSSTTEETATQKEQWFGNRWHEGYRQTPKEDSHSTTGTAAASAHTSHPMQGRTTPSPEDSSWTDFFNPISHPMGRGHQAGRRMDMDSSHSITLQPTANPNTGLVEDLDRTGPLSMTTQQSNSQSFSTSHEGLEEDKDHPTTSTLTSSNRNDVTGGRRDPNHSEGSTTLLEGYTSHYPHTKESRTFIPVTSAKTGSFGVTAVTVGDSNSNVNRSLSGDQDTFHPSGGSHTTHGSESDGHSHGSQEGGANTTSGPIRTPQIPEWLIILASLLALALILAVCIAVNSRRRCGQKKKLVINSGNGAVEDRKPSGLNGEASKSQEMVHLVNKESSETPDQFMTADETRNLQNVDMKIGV
UniProt P16070, sequence (Q8N556 whole entry, chain 2 of 2, further chain): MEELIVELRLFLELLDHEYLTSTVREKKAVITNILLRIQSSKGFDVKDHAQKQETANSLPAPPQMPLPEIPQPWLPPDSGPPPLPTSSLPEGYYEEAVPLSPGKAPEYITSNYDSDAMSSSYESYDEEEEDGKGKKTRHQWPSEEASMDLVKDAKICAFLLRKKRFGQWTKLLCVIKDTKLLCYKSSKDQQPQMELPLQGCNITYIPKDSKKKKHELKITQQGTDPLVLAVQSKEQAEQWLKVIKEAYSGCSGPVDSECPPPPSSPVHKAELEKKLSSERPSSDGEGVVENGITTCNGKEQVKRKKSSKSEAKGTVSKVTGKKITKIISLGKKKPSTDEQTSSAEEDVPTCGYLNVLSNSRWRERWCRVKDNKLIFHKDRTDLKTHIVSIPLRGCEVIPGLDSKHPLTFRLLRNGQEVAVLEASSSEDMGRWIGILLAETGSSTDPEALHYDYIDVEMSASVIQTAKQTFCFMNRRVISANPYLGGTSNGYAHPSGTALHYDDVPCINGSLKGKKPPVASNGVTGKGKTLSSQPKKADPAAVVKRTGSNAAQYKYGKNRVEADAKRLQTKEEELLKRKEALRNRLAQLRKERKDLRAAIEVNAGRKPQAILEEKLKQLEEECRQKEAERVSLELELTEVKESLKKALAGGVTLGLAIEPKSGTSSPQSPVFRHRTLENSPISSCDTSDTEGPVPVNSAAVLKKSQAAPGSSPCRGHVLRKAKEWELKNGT

Turning to “filamentous actin (F-actin) (natural protein)”, the 125I-F-actin bound, cpm (cells: HA fragment (2-3 disaccharide) treatment) came out at 11700 cpm; the 125I-F-actin bound, cpm (cells: HMW-HA treatment) stood at 13800 cpm; the 125I-F-actin bound, cpm (cells: LMW-HA treatment) amounted to 38400 cpm; the 125I-F-actin bound, cpm (cells: anti-CD44 IgG + LMW-HA treatment) is 12500 cpm. Also, the 125I-F-actin bound, cpm (cells: no treatment, control) worked out at 12700 cpm; the 125I-F-actin bound, cpm (cells: normal IgG + LMW-HA treatment) was determined as 38000 cpm; the 125I-F-actin bound, cpm (cells: normal IgG + no HA treatment) is 12500 cpm; the 125I-F-actin bound, cpm (cells: scrambled siRNA, HMW-HA treatment) was 11500 cpm. The substance further yielded a 125I-F-actin bound, cpm (cells: scrambled siRNA, LMW-HA treatment) of 31800 cpm and a 125I-F-actin bound, cpm (cells: scrambled siRNA, no treatment, control) of 11000 cpm.

For the origin of these results see publication PMC3240717.
